Where two headings read alike, the source gives them in different places.
Key:
Cer-NPHP4-YC [1] = biological target: Cer-NPHP4-YC (UniProt O75161); experiment: split reporter (BiFC, NanoBiT); BiFC: Cer-NPHP-YC co-expressed with YN-myc-Nup in NIH 3T3 cells in serum-free medium; fixed 48 hours post-transfection; YFP fluorescence at the base of the primary cilium, cells counted across two independent experiments
Cer-NPHP4-YC [2] = biological target: Cer-NPHP4-YC (UniProt O75161); experiment: as above; remark: listed apart in the source

Sequence of UniProt O75161 (O75161 whole entry): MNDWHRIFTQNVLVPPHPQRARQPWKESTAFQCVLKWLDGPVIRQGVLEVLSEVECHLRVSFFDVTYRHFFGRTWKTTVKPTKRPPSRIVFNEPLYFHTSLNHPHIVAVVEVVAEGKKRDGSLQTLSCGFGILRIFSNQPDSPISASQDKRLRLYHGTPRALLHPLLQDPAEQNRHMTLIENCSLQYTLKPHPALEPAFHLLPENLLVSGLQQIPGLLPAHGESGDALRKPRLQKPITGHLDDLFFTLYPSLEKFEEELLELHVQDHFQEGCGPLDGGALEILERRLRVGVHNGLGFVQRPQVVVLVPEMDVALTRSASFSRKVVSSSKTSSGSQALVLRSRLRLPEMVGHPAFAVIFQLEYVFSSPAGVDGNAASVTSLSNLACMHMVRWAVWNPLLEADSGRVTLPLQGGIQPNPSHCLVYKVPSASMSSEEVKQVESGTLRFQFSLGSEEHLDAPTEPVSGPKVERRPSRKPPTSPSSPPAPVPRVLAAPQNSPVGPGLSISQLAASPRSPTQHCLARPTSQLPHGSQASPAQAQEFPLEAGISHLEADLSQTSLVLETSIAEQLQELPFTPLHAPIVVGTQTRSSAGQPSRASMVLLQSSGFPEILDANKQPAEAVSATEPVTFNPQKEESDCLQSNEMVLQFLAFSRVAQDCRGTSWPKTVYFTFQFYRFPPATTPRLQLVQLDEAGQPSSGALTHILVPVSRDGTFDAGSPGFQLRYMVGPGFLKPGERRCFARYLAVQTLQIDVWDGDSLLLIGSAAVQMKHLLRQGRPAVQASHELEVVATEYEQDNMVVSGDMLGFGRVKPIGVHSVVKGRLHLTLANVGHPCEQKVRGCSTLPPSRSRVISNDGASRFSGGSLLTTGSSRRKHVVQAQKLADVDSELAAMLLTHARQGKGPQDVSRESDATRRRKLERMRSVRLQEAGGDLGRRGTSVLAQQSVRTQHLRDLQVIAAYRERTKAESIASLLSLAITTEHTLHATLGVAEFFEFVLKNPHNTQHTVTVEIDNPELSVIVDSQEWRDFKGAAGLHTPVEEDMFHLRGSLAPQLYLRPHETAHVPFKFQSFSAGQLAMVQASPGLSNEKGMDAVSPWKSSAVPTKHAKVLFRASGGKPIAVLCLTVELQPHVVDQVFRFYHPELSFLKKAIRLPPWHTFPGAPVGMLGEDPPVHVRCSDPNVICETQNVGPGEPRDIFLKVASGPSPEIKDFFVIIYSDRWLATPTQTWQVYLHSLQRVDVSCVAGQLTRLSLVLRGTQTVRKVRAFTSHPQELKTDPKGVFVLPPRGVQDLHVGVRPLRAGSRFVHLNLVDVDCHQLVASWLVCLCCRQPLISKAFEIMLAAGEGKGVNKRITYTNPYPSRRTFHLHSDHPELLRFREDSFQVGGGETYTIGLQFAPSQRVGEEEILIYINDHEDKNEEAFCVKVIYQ

cells with BiFC signal (Cer-NPHP4-YC [1]): 4 of 30 cells
cells with BiFC signal (Cer-NPHP4-YC [2]): 4 of 35 cells
Substance: YN-myc-Nup35 (from UniProt Q8NFH5 1-326) (natural protein)
